# Target: VE-cadherin (Human CD-144, cadherin-5) (human) (UniProt P33151)
# Experiment: ELISA; 0.01 µM VE-cadherin or control BSA coated on Linbro plate wells in HBSC overnight at 4°C, blocked with 1% BSA in DMEM; MBP fusions added for 1 hr; detected with anti-MBP antibody, OD655; VE-cadherin signal minus BSA and plastic binding
# Sequence of UniProt P33151 (P33151 48-599): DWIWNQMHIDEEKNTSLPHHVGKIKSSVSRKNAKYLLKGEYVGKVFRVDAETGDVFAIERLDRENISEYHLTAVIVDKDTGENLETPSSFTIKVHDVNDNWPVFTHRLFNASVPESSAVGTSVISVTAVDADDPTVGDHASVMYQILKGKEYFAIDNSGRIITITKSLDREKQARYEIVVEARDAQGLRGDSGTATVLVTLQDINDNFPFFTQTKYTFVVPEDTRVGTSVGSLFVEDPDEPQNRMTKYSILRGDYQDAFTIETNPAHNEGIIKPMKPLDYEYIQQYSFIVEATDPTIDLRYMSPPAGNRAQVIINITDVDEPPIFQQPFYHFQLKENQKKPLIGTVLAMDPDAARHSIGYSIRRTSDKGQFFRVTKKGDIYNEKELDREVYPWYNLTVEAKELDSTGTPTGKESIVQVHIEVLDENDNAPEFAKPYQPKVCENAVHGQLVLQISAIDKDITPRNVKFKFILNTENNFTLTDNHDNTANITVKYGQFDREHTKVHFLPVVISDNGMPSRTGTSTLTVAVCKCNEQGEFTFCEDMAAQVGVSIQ
row,Substance,Kd
1,MBP fusion of L. interrogans candidate adhesin LIC11574 (natural protein),7.6 nM
2,MBP fusion of L. interrogans candidate adhesin LIC13411 (natural protein),0.4 nM

# Reference: paper PMC4183468
